Results published in patent US20240368565A1, “COMPLEMENTATION-BASED TAGS AND REPORTERS FOR DUAL-MODALITY LABELING” (Promega Corporation, priority 2023, published 2024).

What was measured:
DualTag peptide [1] = experiment: BRET measurement of reporter stabilization by synthetic peptide; assay type: biochemical; settings: room temperature, HaloTag NanoBRET 618 Ligand, versus LgHT-LgBiT alone
Experimental: FIG. 122A-C. […] After preincubation with peptide at 4° C., solutions were diluted 100-fold into buffer and incubated at room temperature. At time points, samples were added 1:1 to buffer either containing or lacking 10 nM final HaloTag® NanoBRET® 618 Ligand. For the reporter alone condition, samples were added 1:1 to a solution containing 10 nM final VS-HiBiT peptide with or without the 618 ligand in order to complement the LgBiT to create the BRET donor. After the last time point, furimazine substrate was added, followed by measuring the FIG. 122(A) luminescent donor signal using a 450 nm bandpass filter and FIG. 122(B) luminescent acceptor signal using a 600 nm longpass filter. The BRET ratio FIG. 122(C) is determined by dividing the acceptor signal by the donor signal for each sample.

DualTag peptide [2] = experiment: Dissociation kinetics after complementation with synthetic peptide (dilution, luminescence); settings: 100 nM protein, 200 nM peptide, diluted to 1 pM, furimazine
Experimental: After preincubation with peptide, samples were diluted to 1 pM in either buffer alone or buffer 100 nM Tag peptide. At various time points, samples were transferred into luminescent substrate (Furimazine) to monitor dissociation of the complex.

B1: LgHT-LgBiT: tandem polypeptide reporter (Reporter) of FIG. 120, 122, 124 (protein)
chain: MFHYVDVGPRDGTPVLFLHGNPTSSYVWRNIIPHVAPTHRCIAPDLIGMGKSDKPDLGYFFDDHVRFMDAFIEALGLEEVVLVIHDWGSALGFHWAKRNPERVKGIAFMEFIRPIPTWDEWPEFARETFQAFRTTDVGRKLIIDQNVFIEGTLPMGVVRPLTEVEMDHYREPFLNPVDREPLWRFPNELPIAGEPANIVALVEEYMDWLHQSPVPKLLFWGTPGVLIPPAEAARLAKSLPNCKAVDIGPGLNLLQEDNPDLIGSEIARWLSTLEISGGSGGSGGGGSGGMVFTLEDFVGDWEQTAAYNLDQVLEQGGVSSLLQNLAVSVTPIQRIVRSGENALKIDIHVIIPYEGLSADQMAQIEEVFKVVYPVDDHHFKVILPYGTLVIDGVTPNMLNYFGRPYEGIAVFDGKKITVTGTLWNGNKIIDERLITPDGSMLFRVTINSGSGHHHHHH
DualTag peptide [1]
  LgBiT luminescence and LgHT ligand binding activity over time (Raw BRET ratio): remain intact for longer
DualTag peptide [2]
  Dissociation from the DualTag peptide: exceptionally slow dissociation kinetics
